From PMC3826434 (Biochemistry, 2013)

Target: the molecule itself
Assay: native gel or EMSA

B1: CmlA, β-hydroxylase of the chloramphenicol biosynthetic pathway (wild type) (enzyme)
chain: MRYSLRQDIAVEPVIAGWYGWSYLLPPQTLARFVHNRFNRIVESYLDDPQVHAAAVRQRRMHGGPWIHAHEHRDAIEAWYRETAPRRERLDELFEAVRRLEEDILPRHHGECLDPVYQELPAALAGRVEVFYGRDNRTADYRFVEPLMYASEYYDESWQQVRFRPVTEDAREFALTTPMLEYGPEQLLVDVPLNSPLLDAVFRGGLTGTELDDLAARFGLDGERAARFASYFEPTPAASEAPAPASSSEEDVLEYVGHACVFARHRGTTFLVDPVLSYSGYPGGAENRFTFADLPERIDHLLITHNHQDHMLFETLLRIRHRVGRVLVPKSTNASLVDPGLGGILRRLGFTDVVEVDDLETLSCGSAEVVALPFLGEHGDLRIRSKTGWLIRFGERSVLFAADSTNISPTMYTKVAEVIGPVDTVFIGMESIGAAASWIYGPLYGEPLDRRTDQSRRLNGSNFPQAREIVDALEPDEVYVYAMGLEPWMGVVMAVDYDESHPAIVDSDLLVRHVQDKGGTAERLHLRRTLRL
With B1 the “stoichiometry N” value was 2.
